In the PETadex activity labels (doi:10.1021/acscatal.2c02275):
Changes are numbered by the printed parent chain.

B1: unnamed (protein)
chain: MSNPYQRGPNPTRSALTADGPFSVATYTVSRLSVSGFGGGVIYYPTGTSLTFGGIAMSPGYTADASSLAWLGRRLASHGFVVLVINTNSRFDGPDSRASQLSAALNYLRTSSPSAVRARLDANRLAVAGHSMGGGGTLRIAEQNPSLKAAVPLTPWHTDKTFNTSVPVLIVGAEADTVAPVSQHAIPFYQNLPSTTPKVYVELCNASHIAPNSNNAAISVYTISWMKLWVDNDTRYRQFLCNVNDPALCDFRTNNRHCQL
B2: unnamed (protein)
chain: MANPYERGPDPTESSIEAVRGPFAVAQTTVSRLQADGFGGGTIYYPTDTSQGTFGAVAISPGFTAGQESIAWLGPRIASQGFVVITIDTITRLDQPDSRGRQLQAALDHLRTNSVVRNRIDPNRMAVMGHSMGGGGALSAAANNTSLEAAIPLQGWHTRKNWSSVRTPTLVVGAQLDTIAPVSSHSEAFYNSLPSDLDKAYMELRGASHSVSNTPDTTTAKYSIAWLKRFVDDDLRYEQFLCPAPDDFAISEYRSTCPF
B3: unnamed (protein)
chain: B2 chain with S210K
B4: unnamed (protein)
chain: B2 chain with S210Y
B5: unnamed (protein)
chain: B2 chain with S210W
B6: unnamed (protein)
chain: B2 chain with S210L
B7: unnamed (protein)
chain: B2 chain with R205C, S210L, S251C
B8: unnamed (protein)
chain: B2 chain with I179F, S210L
B9: unnamed (protein)
chain: B2 chain with S210I
B10: unnamed (protein)
chain: B2 chain with I179W, S210L
B11: unnamed (protein)
chain: B2 chain with S210N
B12: unnamed (protein)
chain: B2 chain with L93F, Q95Y, S210L

What follows are proteins tested on pcPET (post-consumer) (assay: Proxy for plastic degradation [Released monomer concentration (HPLC/LC-MS) (MHET+TPA+BHET)]). Details: pH 8; part of the chain shown.

| Protein | Proxy for plastic degradation |
| --- | --- |
| B1 | 90 mM |
| B6 | 70 mM |
| B7 | 62 mM |
| B12 | 198 mM |

These proteins were tested on gfPET (assay: Proxy for plastic degradation [Relative activity]). Details: pH 8.

| Protein | Proxy for plastic degradation |
| --- | --- |
| B2 | 94% |
| B3 | 48% |
| B4 | 68% |
| B5 | 85% |
| B8 | 9% |
| B9 | 54% |
| B10 | 23% |
| B11 | 97% |

Same assay, conditions: pH 8; part of the chain shown

| Protein | Proxy for plastic degradation |
| --- | --- |
| B7 | 100% |
| B12 | 100% |
